Assay: yeast display, Sf9 membrane polyspecificity reagent, FACS + sequencing; frameworks hold sequencing errors
Procedure, shortened: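 In a synthetic yeast display library (Saccharomyces cerevisiae BJ5465), nanobody expression was induced with galactose for 36–48 hours. FACS gates were set low and high (top ~1%) using anti-HA fluorescence for expression and streptavidin fluorescence for binding of the Sf9 membrane reagent. Each polyreactivity label is drawn from the gate of origin.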

Row | Sequence | polyreactivity (PSR sort gate)
1 | QVQLVESGGGLVQAGGSLRLSCAASGITFKYYTMGWYRQAPGKERELVAAISRSGGSTYYADSVKGRFTISRDNAKNTVYLLMNSLKPEDTAVYYCAGERGAYRGVTFTYGYWGQGTQVTVSS | high polyreactivity
2 | QVQLVESGGGLVQAGGSLRLSCAASGITFKYYVMGWYRQAPGKERELVARITRRSGSTYYADSVKGRFTISRDNAKNTVYLQMNSLKPEDTAVYYCAASPHSRSDYGYWGQGTQVTVSS | high polyreactivity
3 | QVQLVESGGGLVQAGGSLRLSCAASGITFLNYAMGWSRQEPGKERELVAAITSGGSTYYADSVKGRFTITRDNAKNTVYLQMNSLKPEDTAVYYCAADGDSLPYSFWWQIRLDYWGQGTVVTVSS | low polyreactivity
4 | QVQLVESGGGLVQAGGSLRLSCAASGITFLRYAMGWYRQAPGKERELVATIRTGGTTNYADSVKGRFTISRDNAKNTVYLLMISLKPEDTAVYYCAVDWSRQAHKFNYWGQGTQVTVSS | high polyreactivity
5 | QVQLVESGGGLVQAGGSLRLSCAASGITFLVYVMGWYIQAPGKERELVAAISSGGSTYYADSVKGRFTISRDKAKNTVYLQMNSLKPEDTAVYYCAAERKLYGLYDYWGQGTQVTVSS | low polyreactivity
6 | QVQLVESGGGLVQAGGSLRLSCAASGITFLWNVMGWYRQAPGKERELVATITSIGGITNYADSVKGRFTISRDNAKNTVYLQMNSLKPEDTAVYYCARDDRDIRGESGREGFLYDYWGQGTQVTVSS | low polyreactivity
7 | QVQLVESGGGLVQAGGSLRLSCAASGITFNPNAMGWYRQAPGKERELVAVITYRGGSTYYADSVKGRFTISRDNAKNTVYLQMNSLKPEDTAVYYCAAQYIGWHLYWYDYWGQGTQVTVSS | low polyreactivity
8 | QVQLVESGGGLVQAGGSLRLSCAASGITFNRYSMGWYRQAPGKERELVARISLRGGNTYYADSVKGRFTISRDNAKNTVYLQMNSLKPEDPAVYYCNADLYRQYASRYHYWGQGTQVTVSS | high polyreactivity
9 | QVQLVESGGGLVQAGGSLRLSCAASGITFNSYAMGWYRQAPGKERELVAAISGSGSSTYYADSVKGRFTISRDNAKNTVYLQMNSLKPEDTAVYYCAATGYSSWTYYTHEYWGQGTQVTVSS | low polyreactivity
10 | QVQLVESGGGLVQAGGSLRLSCAASGITFNSYAMGWYRQAPGKERELVAAISWSGGSTYYADSVKGRFTISRDNAKNTVYLQMNSLKPEDTAVYYCNAEYRYYQKTPGRYTNVEYDYWGQGTQVTVSS | low polyreactivity
11 | QVQLVESGGGLVQAGGSLRLSCAASGITFNTYAMGWYRHAPGKERELVAVITWSDGGTYYADSVKGRFTISRDNAKNTVYLQMNSLKPEDTAVYYCAADYDWGYDYWGQGTQVTVSS | low polyreactivity
12 | QVQLVESGGGLVQAGGSLRLSCAASGITFNTYAMGWYRQAPGKERELVAVITWSDGGTYYADSVKGRFTISRDNAKNTVYLQMNSLKPEDTAVYYCAADYYWGYDYWGQGTQVTVSS | low polyreactivity
13 | QVQLVESGGGLVQAGGSLRLSCAASGITFPANAMGWYRQAPGKERELVADISESDGSTYYADSVKGRFTISLDNAKNTVYLQMNSLKPEDTAVYYCNAEWTSFDWGQGTQVTVSS | low polyreactivity
14 | QVQLVESGGGLVQAGGSLRLSCAASGITFPANAMGWYRQAPGKQWELVAAISSYGGSTYYADSVKGRFTISRDNEKNTVDLQMNSLKPEDTAVYYCAAYLSSLGRKYYYWGQGTQVTVSS | high polyreactivity
15 | QVQLVESGGGLVQAGGSLRLSCAASGITFPRYTMGWYRQAPGTERELVAAISSGGSTYYADSVKGRFTISRDNAKNTVYLQMNSLKPEDTAVYYCNAEVPYWYYIYDYWGQGTQVTVSS | high polyreactivity
16 | QVQLVESGGGLVQAGGSLRLSCAASGITFPRYVMGWYRQAPGKEREFVAAINYSGGRTYYADSVKGRFTISRDNAKNTVYLQMNSLKPEDTAVYYCAVDLHVWPFWYDYWGQGTQVTVSS | high polyreactivity
17 | QVQLVESGGGLVQAGGSLRLSCAASGITFPYYAMGWYRQAPGKERELVAAISLSGGTTYYADSVKGRFTISRDNAKNTVYLQMNSLKPDDTAVYYCAARSSKFVTSNRYDYWGQGTQVTVSS | high polyreactivity
18 | QVQLVESGGGLVQAGGSLRLSCAASGITFPYYAMGWYRQAPGKERELVAAITTGGGSTYYADSVKGRFTISRDNAKNTVYLQMNSLKPEDTAVYYCAAANLRARTGPRRGYEYWGQGTQVTVSS | high polyreactivity
19 | QVQLVESGGGLVQAGGSLRLSCAASGITFPYYVMGWYRQAPGKERELVAAISKSVGRTYYADSVKGRFTISRDNAKNTVYLQMNSLKPEDTAVYYCAAYSSYYVHRFQHYDYWGQGTQVTVSS | high polyreactivity
20 | QVQLVESGGGLVQAGGSLRLSCAASGITFQRYVLGWYRQAPGKERELVAAISFTASSTYYADSVKGRFTISRDYAKKTVYLQMNSLKPEDTAVYYCAADGSVPKYVPYPRYYGYGYWGQGTQVTVSS | high polyreactivity
21 | QVQLVESGGGLVQAGGSLRLSCAASGITFQYYAMGWYRQAPGKERELFARISSSGGRTFYADSVKGRFTISRDNAKNTVYLQMNSLKQEDTAVYYCAAGSLSLSNSTVWFEYDYWGQGTQVSVSS | high polyreactivity
22 | QVQLVESGGGLVQAGGSLRLSCAASGITFQYYAMGWYRQAPGKERELVAAISSGGSTYYADSVKGRFTISRDNAKNTVYLQMNSLKPEDTAVYYCAAKRVFFGLNYDYWGQGTQVTVSS | high polyreactivity

Row | Sequence | polyreactivity (PSR sort gate)
23 | QVQLVESGGGLVQAGGSLRLSCAASGITFRANAKGWYRQAPGKERELVAAISARGGSTYYADSVKGRFTISRDNAKNTVYLQMNSLNPEDTAVYYCAKELSQGMRYDYWGQGTQVTVSS | high polyreactivity
24 | QVQLVESGGGLVQAGGSLRLSCAASGITFRAYVMGWYRQEPGKERELVAAINRRGGSTYYADSVKGRFTISRDNAKNTVYLQMNSLKPEDTAVYYCAAGLYSTGYTYDYWGQGTQVTVSS | high polyreactivity
25 | QVQLVESGGGLVQAGGSLRLSCAASGITFRGYAMGWYRQAPGKERELVAAITGSGTSTYADSVKGRFTISRGNAKNTVYLQMNSLKPEDTAVYYCAADTYDPFYYGYGYWGQGTQVTVSS | low polyreactivity
26 | QVQLVESGGGLVQAGGSLRLSCAASGITFRGYAMGWYRQAPGKERELVASITNTDSTYYADSVKGRFTISRDNAKNTVYLQMNSLKPEDTAVYYCNAEADPYSVDYDYWGQGTQVTVSS | high polyreactivity
27 | QVQLVESGGGLVQAGGSLRLSCAASGITFRKYVMGWYRPAPGKERELVAAITRGGSTNYADSVKGRFTISRDNAKNTVYLQMNSLKPEDTAVYYCATRQSWYPRWMDYWGQGTQVTVSS | high polyreactivity
28 | QVQLVESGGGLVQAGGSLRLSCAASGITFRLYAMGWYRQAPGKERELVAAISKRGGSTYYADSVKGRFTISRDNAKNTVYLQMNSLKPEDTAVYYCAADSGWEHRYDYWGQGTQVTVSS | high polyreactivity
29 | QVQLVESGGGLVQAGGSLRLSCAASGITFRNYAMVWSRQAPGKERELVADITTGGSTYADSVKGRFTISRDNAKNTVYLQMISLNPEDTAVYYCAADRDFRTPRLYYWGQGTQVTVSS | low polyreactivity
30 | QVQLVESGGGLVQAGGSLRLSCAASGITFRQYAMGWYRQAPGKERELVAVITSRGGTTYYAVSVKGRFTISRDNAKNTVYLQMNSLKPEDTAVYYCAARYPSYDFYYWGQGTQVTVSS | high polyreactivity
31 | QVQLVESGGGLVQAGGSLRLSCAASGITFRRKAMGWYRQAPGKERELVAAISASGTRTYYADSVKGRLTISRDNAKNTVYLQMNSLKPEDTAVYYCATRVTSRSSGFDYWGQGTQVTVSW | high polyreactivity
32 | QVQLVESGGGLVQAGGSLRLSCAASGITFRRYAMGWYRPAPGKERELVAVISVSGGRTHYADSVKGRFTISRDNAKNTVYLQMNSLKPEDTAVYYCAAQFSYRYYTDEVGYWGQGTQVTVSS | high polyreactivity
33 | QVQLVESGGGLVQAGGSLRLSCAASGITFRRYAMGWYRQAPGKERELVASITSNGGSTYYADSVKGRFTISRDTAKNTVYLQMNSLKPEDTAVYYFAADFAVGQWLTQTSVEYDYWGQGTQLTVSS | high polyreactivity
34 | QVQLVESGGGLVQAGGSLRLSCAASGITFRRYAMGWYRQAPGKERELVAVISVSGGRTHYADSVKGRFTISRDNAKNTVYLQMNSLKPEDTAVYYCAAQFSYRYYTDEVGYWGQGTQVTVSS | high polyreactivity
35 | QVQLVESGGGLVQAGGSLRLSCAASGITFRSYAMGWYRQAPGKERELVAAIRSGGSTSYADSVKGRFTISRDNAKTTVYLQMNSLKPEDTAVYYCAAGGYVPLPDITFWKFGYWGQGTQVTVSS | low polyreactivity
36 | QVQLVESGGGLVQAGGSLRLSCAASGITFRSYAMGWYRQAPGKERELVAAISSTGRTYYADSVKGRFTISRDNAKNTVYLQMNSLKPEDTAGYYCNAKRYIWGQGTQVTVSS | high polyreactivity
37 | QVQLVESGGGLVQAGGSLRLSCAASGITFRVYAMGWYRQAPGKERELVADISGTGGSTYYADSVKGRFTISRDYAKNTVYLQMNSLKPEDTAVYYCAAVYGFYYSFLQDSYGYWGQGTQVTVSS | low polyreactivity
38 | QVQLVESGGGLVQAGGSLRLSCAASGITFRWNAMGWYRQAPGKERELVAAITTRGGGTYYADSVKGRFTISRDNAKNTVYLQMNSLKPEDTAVYYCGAKKSRYPYNYWGQGTQVTVSS | high polyreactivity
39 | QVQLVESGGGLVQAGGSLRLSCAASGITFRYYAMGWSRQAPWKERELVAVISSTGITNYADSVKGRFTISRDNAKNTVYLQMNSLKPEDTAVYYCAAGLWYSYDYWGQGTQVTVSS | high polyreactivity
40 | QVQLVESGGGLVQAGGSLRLSCAASGITFRYYAMGWYRQAPGKERELVAAISIRGRTYYADSVKGRFTISRDNAKNTVYLQMNSLKPEDTAVYYCAAVKRVVAFDYWGQGTQVTVSS | low polyreactivity
41 | QVQLVESGGGLVQAGGSLRLSCAASGITFRYYTMGWYRQAPGKERELVAAISSSGGSTYYADSVKGRFTISRDNAKNTVYLQMNSLKPEDTAVYYCAAESKYATSSPRRDYWGQGTQVTVSS | high polyreactivity
42 | QVQLVESGGGLVQAGGSLRLSCAASGITFSDNTMGWYRQAPGKERELVAAISWRGGLTYYADSVKGRFTISRDNAKNTVYLQMNSVKPEDTAVYYCIAVTSSKARYSSYDYWGQGTQVTVSS | high polyreactivity
43 | QVQLVESGGGLVQAGGSLRLSCAASGITFSFYTMGWYRQAPGKERELVAAMTQDGGSTYYADSVKGRFTISRDNAKNTVYLQMNSLKPEDTAVYYCASDLVVFVQFDVAVDYYYWGQGTQVTVSS | low polyreactivity

From the nanobody polyreactivity screen of Harvey et al. (2022)
